Assay results reported in patent US20080027145A1, “Therapeutic Molecules and Methods for Generating and/or Selecting Same” (priority 2004, published 2008).

B1: Bmf: BH3-only protein Bmf, expressed from retrovirus in MEFs, recombinant in GST pull-down (protein, UniProt Q91ZE9 1-185, looked up)
Bcl-2-modifying factor: MEPPQCVEELEDDVFQSEDGEPGTQPGGLLSADLFAQSQLDCPLSRLQLFPLTHCCGPGLRPISQEDKATQTLSPASPSQGVMLPCGVTEEPQRLFYGNAGYRLPLPASFPAGSPLGEQPPEGQFLQHRAEVQIARKLQCIADQFHRLHTQQHQQNRDRAWWQVFLFLQNLALNRQENREGVGPW
B2: Bad: full-length mouse BH3-only protein Bad expressed in cells, recombinant in GST pull-down (protein, UniProt Q61337 1-204, looked up)
chain: MGTPKQPSLAPAHALGLRKSDPGIRSLGSDAGGRRWRPAAQSMFQIPEFEPSEQEDASATDRGLGPSLTEDQPGPYLAPGLLGSNIHQQGRAATNSHHGGAGAMETRSRHSSYPAGTEEDEGMEEELSPFRGRSRSAPPNLWAAQRYGRELRRMSDEFEGSFKGLPRPKSAGTATQMRQSAGWTRIIQSWWDRNLGKGGSTPSQ
modifications: full-length
notes: full-length mouse BH3-only protein Bad expressed in cells, recombinant in GST pull-down
B3: Bik: full-length human BH3-only protein Bik expressed in cells (protein, UniProt Q13323 1-160, looked up)
chain: MSEVRPLSRDILMETLLYEQLLEPPTMEVLGMTDSEEDLDPMEDFDSLECMEGSDALALRLACIGDEMDVSLRAPRLAQLSEVAMHSLGLAFIYDQTEDIRDVLRSFMDGFTTLKENIMRFWRSPNPGSWVSCEQVLLALLLLLALLLPLLSGGLHLLLK
modifications: full-length
B4: Noxa: full-length BH3-only protein Noxa expressed in cells (mouse Noxa bearing two BH3s in co-immunoprecipitation) (protein, UniProt Q9JM54 1-103, looked up)
chain: MPGRKARRNAPVNPTRAELPPEFAAQLRKIGDKVYCTWSAPDITVVLAQMPGKSQKSRMRSPSPTRVPADLKDECAQLRRIGDKVNLRQKLLNLISKLFNLVT
modifications: full-length

Legend:
[1] = tested on: mouse embryonic fibroblasts (MEFs); assay: Killing of MEFs after retroviral expression, viability 24 hours after infection; type: cell-based; settings: for killing of MEFs: retroviral expression, 24 hours after infection; for killing of MEFs on co-expression with the NoxaBH3: co-expressed with GFP-Bims NoxaBH3, 24 hours
Experimental: FIG. 7 is a graphical representation showing that BH3-only proteins that bind selective targets have weak killing activity. (A) The affinities of BH3-only peptides for pro-survival proteins (tabulated in FIG. 3A) were inversely plotted to facilitate comparison of the patterns of BH3 binding. […] Immortalized 3T9 MEFs were infected with retroviruses expressing only GFP (control), or one of the BH3-only proteins and GFP. The viability of the infected (GFP^+ve) cells was determined by PI exclusion 24 hours after infection. The histograms represent means±1SD of at least 3 experiments. […] The filter was probed with a rat monoclonal anti-FLAG antibody. *Degradation product of Mcl-1. […] Viability of MEFs infected with retroviruses encoding the indicated proteins (GFP^+ve) was analyzed 24 hours after infection. The histograms represent means±1SD of at least 3 experiments. (E) Long-term survival of MEFs infected with BH3 expressing retroviruses. One hundred retrovirally-infected cells were plated and the absolute number of GFP^+ve colonies formed after 6 days scored. […] The data represent the average number of GFP^+ve colonies formed±1SD from at least 3 experiments. To assess the biological relevance of the selective binding, retroviral delivery was used to compare the ability of different BH3-only proteins to kill wild-type mouse embryonic fibroblasts (MEFs). To monitor expression of the introduced gene, a vector (pMIG) in which its expression is coupled via an internal ribosomal entry site (IRES) to that of green fluorescent protein (GFP) was used (Van Parijs et al., Immunity 11:281-288, 1999). The cells were efficiently infected (>90%) and the introduced BH3-only proteins were comparably expressed. Viability of the infected (GFP^+ve) cells was scored 24 hours after infection (FIGS. 7A, 7B) and in long-term colony assays (FIG. 7E). […] Thus, the neutralization of Mcl-1 by Noxa should be complemented by co-expression of a BadBH3 to neutralize Bcl-2 and Bcl-xL in MEFs (FIG. 8A).

[2] = molecular target: GST Mcl-1 (Mus musculus, UniProt P97287); assay: GST pull-down with recombinant BH3-only proteins; type: binding
Sequence of GST Mcl-1 (P97287 whole entry): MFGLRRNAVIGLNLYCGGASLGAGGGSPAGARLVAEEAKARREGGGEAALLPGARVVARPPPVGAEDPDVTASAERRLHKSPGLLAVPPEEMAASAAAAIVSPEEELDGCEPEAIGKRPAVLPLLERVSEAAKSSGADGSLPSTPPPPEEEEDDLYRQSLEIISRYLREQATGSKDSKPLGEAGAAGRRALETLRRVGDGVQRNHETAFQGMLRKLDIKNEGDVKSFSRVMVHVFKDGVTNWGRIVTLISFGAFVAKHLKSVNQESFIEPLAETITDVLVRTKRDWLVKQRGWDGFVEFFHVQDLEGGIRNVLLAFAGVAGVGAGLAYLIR

[3] = molecular target: T1, Mcl-1 ΔN151 ΔC23 (Mus musculus, UniProt P97287); assay: Mcl-1 ΔN151 ΔC23
T1 construct: mouse Mcl-1 (Acc. no. NP_031588; residues 152-308); GST (N, cleaved yes); made in house
T1 sequence (P97287 152-308, stated change not applied): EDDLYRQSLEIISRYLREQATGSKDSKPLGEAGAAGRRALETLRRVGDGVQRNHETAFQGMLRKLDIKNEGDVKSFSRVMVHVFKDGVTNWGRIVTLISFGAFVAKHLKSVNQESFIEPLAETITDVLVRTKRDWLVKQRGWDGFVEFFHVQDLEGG
Experimental: (§1) Table printed on a drawing sheet, FIGURE 2A
Head of the field: Mcl-1 ΔN151 ΔC23
(§2) The patent's description of the figure: FIG. 2 is a graphical representation showing pro-apoptotic BH3-only and pro-survival Bcl-2-like proteins have distinctive interactions. (A) Using competitive binding assays, the IC50 (nM) for the indicated interactions were determined. The results shown are from representative experiments; the variation observed in multiple experiments was less than two-fold (using different chips or protein batches). (B) Relative binding affinities of interactions (tabulated in A) were inversely plotted. The BH3 binding profiles of pro-survival proteins are shown. In (C), the sequences of human Bcl-2 (residues 93-202), human Bcl-xL (86-195), human Bcl-w (42-151), mouse Mcl-1 (190-300) and mouse A1 (33-148) that form their BH3 binding grooves (α-helices 2 to 8; Hinds et al., EMBO J 22:1497-1507, 2003) were compared and presented as a phylogenetic tree. Color reproductions are available from the patentees on request.
(§3) First copying reader's note: The table itself prints no unit; IC50 (nM) is printed only on the axis of panel B of the same figure, which plots the same values.
Where the first naming reader finds the target: head: Mcl-1 ΔN151 ΔC23

[4] = molecular target: T2, A1 ΔC20 (Mus musculus, UniProt Q07440); assay: A1 ΔC20
T2 construct: mouse A1 (Acc. no. NP_033872; residues 1-152); GST (N, cleaved yes); made in house
T2 sequence (Q07440 1-152, stated change not applied): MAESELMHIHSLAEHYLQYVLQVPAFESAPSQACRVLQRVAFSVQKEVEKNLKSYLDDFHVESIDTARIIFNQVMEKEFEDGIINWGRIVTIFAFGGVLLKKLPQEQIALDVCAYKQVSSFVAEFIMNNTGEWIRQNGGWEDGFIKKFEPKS
Experimental: as §1
Head of the field: A1 ΔC20
as §2, §3
Where the first naming reader finds the target: head: A1 ΔC20

[5] = molecular target: T3, FLAG-tagged Bcl-2 (Homo sapiens, UniProt P10415); assay: Co-immunoprecipitation in transfected 293T cells; type: binding; settings: tagged full-length proteins
T3 construct: expressed in transfected cells; host or cells: HEK293T
T3 sequence (P10415 whole entry): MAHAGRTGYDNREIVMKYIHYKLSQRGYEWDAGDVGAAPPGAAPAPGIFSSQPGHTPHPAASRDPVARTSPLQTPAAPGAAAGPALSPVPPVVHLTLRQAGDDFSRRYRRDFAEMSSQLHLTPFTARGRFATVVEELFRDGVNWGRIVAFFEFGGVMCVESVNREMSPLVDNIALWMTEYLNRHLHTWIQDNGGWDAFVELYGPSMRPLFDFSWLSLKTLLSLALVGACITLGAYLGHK
From the text: (§4) Equivalent ^35S-labeled lysates harvested from 293T cells were immunoprecipitated with antibodies to the HA, FLAG (FL) or control (C) tags.
(§5) The maintenance, transfection and metabolic labeling of the human embryonic kidney (HEK) 293T cells with ^35S-methionine/cysteine (NEN) as well as co-immunoprecipitation have been described (Huang et al., Supra; Moriishi et al., Proc Natl Acad Sci USA 96:9683-9688, 1999; O'Conner et al., Supra). Briefly, equivalent TCA-precipitable lysates were immunoprecipiated using the mouse monoclonal antibodies to HA (HA.11; CRP), FLAG (M2; Sigma) and control Glu-Glu (CRP) tags. The proteins were resolved by SDS:PAGE, transferred onto nitrocellulose membranes and detected by fluorography (Amplify; Amersham Biosciences).
(§6) To verify the in vitro findings, interactions of selected pairs of the full-length N-terminally tagged proteins were investigated in mammalian cells by co-immunoprecipitation. […] The cells were metabolically labeled with ^35S-methionine/cysteine to permit semi-quantitative assessment of any interaction between co-associating radiolabeled proteins.
(§7) To verify the in vitro findings, selected pairs of the full-length N-terminally tagged proteins associated in mammalian cells were investigated by co-immunoprecipitation. […] The cells were metabolically labeled with ^35S-methionine/cysteine to permit semi-quantitative assessment of any interaction between the labeled proteins or interaction was gauged by the more sensitive western blotting.

[6] = molecular target: T4, FLAG-tagged Mcl-1 (Mus musculus, UniProt P97287); assay: Co-immunoprecipitation in transfected 293T cells; type: binding; settings: tagged full-length proteins
T4 construct: expressed in transfected cells; host or cells: HEK293T
T4 sequence (P97287 whole entry): as the sequence (P97287 whole entry) above
From the text: as §4, §5, §6, §7

[7] = molecular target: T5, FLAG-tagged Bcl-xL (Homo sapiens, UniProt Q07817); assay: Co-immunoprecipitation in transfected 293T cells; type: binding; settings: tagged full-length proteins
T5 construct: expressed in transfected cells; host or cells: HEK293T
T5 sequence (Q07817 whole entry): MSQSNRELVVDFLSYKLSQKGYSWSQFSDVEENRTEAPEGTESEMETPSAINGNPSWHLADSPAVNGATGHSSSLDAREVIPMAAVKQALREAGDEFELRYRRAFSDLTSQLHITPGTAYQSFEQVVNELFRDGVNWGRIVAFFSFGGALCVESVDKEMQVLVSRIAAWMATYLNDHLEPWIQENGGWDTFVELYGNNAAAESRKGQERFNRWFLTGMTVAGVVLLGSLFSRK
From the text: as §4, §5, §6, §7

[8] = molecular target: T6, Bcl-xL ΔC24 (Homo sapiens, UniProt Q07817); assay: Bcl-xL ΔC24
T6 construct: Human Bcl-xL (Acc. no. NP_612815; residues 1-209); GST (N, cleaved yes); made in house
T6 sequence (Q07817 1-209, stated change not applied): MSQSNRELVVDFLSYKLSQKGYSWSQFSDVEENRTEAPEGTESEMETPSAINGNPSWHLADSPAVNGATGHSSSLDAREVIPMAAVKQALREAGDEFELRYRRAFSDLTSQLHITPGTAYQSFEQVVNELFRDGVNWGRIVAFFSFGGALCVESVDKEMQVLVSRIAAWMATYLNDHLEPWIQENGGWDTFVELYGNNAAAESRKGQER
Experimental: as §1
Head of the field: Bcl-xL ΔC24
as §2, §3
Where the first naming reader finds the target: head: Bcl-xL ΔC24

[9] = molecular target: T7, Bcl-w ΔC29 (Homo sapiens, UniProt Q92843, A128E/C29S); assay: Bcl-w ΔC29
T7 construct: human Bcl-w (Acc. no. NP_004041; residues 1-164; C29S A128E); made in house
T7 sequence (Q92843 1-164 C29S/A128E): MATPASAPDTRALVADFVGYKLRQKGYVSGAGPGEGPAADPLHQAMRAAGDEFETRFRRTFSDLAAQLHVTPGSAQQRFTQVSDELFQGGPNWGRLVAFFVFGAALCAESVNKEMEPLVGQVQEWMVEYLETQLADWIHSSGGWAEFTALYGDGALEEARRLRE
Experimental: as §1, §2, §3

[10] = molecular target: T8, Bcl-2 ΔC22 (Homo sapiens, UniProt P10415); assay: Bcl-2 ΔC22
T8 construct: Human Bcl-2 (Acc. no. NP_000624; residues 1-217); made in house
T8 sequence (P10415 1-217, stated change not applied): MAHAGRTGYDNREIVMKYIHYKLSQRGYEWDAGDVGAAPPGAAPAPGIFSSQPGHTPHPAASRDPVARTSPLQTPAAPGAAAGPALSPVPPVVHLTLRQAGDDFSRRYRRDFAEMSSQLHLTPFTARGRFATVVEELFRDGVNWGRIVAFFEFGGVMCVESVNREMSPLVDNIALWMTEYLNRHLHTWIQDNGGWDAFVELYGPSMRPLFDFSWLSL
Experimental: as §1
Head of the field: Bcl-2 ΔC22
as §2, with “In (C), the sequences of human Bcl-2 (residues 93-202), human Bcl-xL (86-195), human Bcl-w (42-151), mouse Mcl-1 (190-300) and mouse A1 (33-148) that form their BH3 binding grooves (α-helices 2 to 8; Hinds et al., EMBO J 22:1497-1507, 2003) were compared and presented as a phylogenetic tree.” left out
as §3
Where the first naming reader finds the target: head: Bcl-2 ΔC22

[11] = tested on: mouse embryonic fibroblasts (MEFs); assay: Long-term colony assay of retrovirally infected MEFs; type: cell-based; settings: colonies after 6 days
Experimental: FIG. 7 is a graphical representation showing that BH3-only proteins that bind selective targets have weak killing activity. (A) The affinities of BH3-only peptides for pro-survival proteins (tabulated in FIG. 3A) were inversely plotted to facilitate comparison of the patterns of BH3 binding. […] Immortalized 3T9 MEFs were infected with retroviruses expressing only GFP (control), or one of the BH3-only proteins and GFP. The viability of the infected (GFP^+ve) cells was determined by PI exclusion 24 hours after infection. The histograms represent means±1SD of at least 3 experiments. […] The filter was probed with a rat monoclonal anti-FLAG antibody. *Degradation product of Mcl-1. […] Viability of MEFs infected with retroviruses encoding the indicated proteins (GFP^+ve) was analyzed 24 hours after infection. The histograms represent means±1SD of at least 3 experiments. (E) Long-term survival of MEFs infected with BH3 expressing retroviruses. One hundred retrovirally-infected cells were plated and the absolute number of GFP^+ve colonies formed after 6 days scored. […] The data represent the average number of GFP^+ve colonies formed±1SD from at least 3 experiments. […] Viability of the infected (GFP^+ve) cells was scored 24 hours after infection (FIGS. 7A, 7B) and in long-term colony assays (FIG. 7E).

Row | Molecule | killing of MEFs [1] | binding of GST Mcl-1 [2] | IC50 [3] [µM] | IC50 [4] [µM] | interaction with Bcl-2 by co-immunoprecipitation [5] | interaction with Mcl-1 by co-immunoprecipitation [6] | interaction with Bcl-xL by co-immunoprecipitation [7] | IC50 [8] [µM] | IC50 [9] [µM] | IC50 [10] [µM] | killing of MEFs on co-expression with the NoxaBH3 [1] | long-term survival, GFP+ve colonies [11] | killing of MEFs on co-expression with the BadBH3 ([1]; co-expressed with GFP-Bims BadBH3, 24 hours)
1 | B1 | much less potent killers | weakly | 1.1 | 1.8 |  |  |  |  |  |  |  |  | 
2 | B2 | much less potent killers | not | > 100 | 15 | bound well | not appreciably | bound well | 0.0053 | 0.03 | 0.016 |  |  | 
3 | B3 | much less potent killers |  |  | 0.058 |  |  | to a greater extent than Bcl-2 or Mcl-1 |  |  |  | potently enhanced | modest effects | 
4 | B4 | much less potent killers |  |  | 0.18 |  | interacted only with Mcl-1 | did not | > 100 | > 100 | > 100 | did not augment | modest effects | as much cell death as expression of Bims alone
